The assay has as its target T1, FCR3.varCSA protein (Plasmodium falciparum (FCR3 strain), surface iodinated (125I) in the thrombomodulin bead capture).
T1 construct: also called FCR3-CSA var
Briefly: cytoadhesion of FCR3-CSA PRBCs to CHO-745 cells expressing CD36 (Table 1).

The values that follow come from patent publication US20040062769A1 (US Dept. of Health and Human Services, published 2004).

B1: human CD36 expressed on CHO-745 cells (receptor)
chain: GCDRNCGLIAGAVIGAVLAVFGGILMPVGDLLIQKTIKKQVVLEEGTIAFKNWVKTGTEVYRQFWIFDVQNPQEVMMNSSNIQVKQRGPYTYRVRFLAKENVTQDAEDNTVSFLQPNGAIFEPSLSVGTEADNFTVLNLAVAAASHIYQNQFVQMILNSLINKSKSSMFQVRTLRELLWGYRDPFLSLVPYPVTTTVGLFYPYNNTADGVYKVFNGKDNISKVAIIDTYKGKRNLSYWESHCDMINGTDAASFPPFVEKSQVLQFFSSDICRSIYAVFESDVNLKGIPVYRFVLPSKAFASPVENPDNYCFCTEKIISKNCTSYGVLDISKCKEGRPVYISLPHFLYASPDVSEPIDGLNPNEEEHRTYLDIEPITGFTLQFAKRLQVNLLVKPSEKIQVLKNLKRNYIVPILWLNETGTIGDEKANMFRSQVTGKINLLGLIEMILLSVGVVMFVAFMISYCACRSKTIK
notes: whole, on cells; also called CHO^CD36
B1: the binding result is given as “no binding”.
